B1: human C5a receptor (C5aR) (receptor)
chain: MDSFNYTTPDYGHYDDKDTLDLNTPVDKTSNTLRVPDILALVIFAVVFLVGVLGNALVVWVTAFEAKRTINAIWFLNLAVADFLSCLALPILFTSIVQHHHWPFGGAACSILPSLILLNMYASILLLATISADRFLLVFKPIWCQNFRGAGLAWIACAVAWGLALLLTIPSFLYRVVREEYFPPKVLCGVDYSHDKRRERAVAIVRLVLGFLWPLLTLTICYTFILLRTWSRRATRSTKTLKVVVAVVASFFIFWLPYQVTGIMMSFLEPSSPTFLLLKKLDSLCVSFAYINCCINPIIYVVAGQGFQGRLRKSLPSLLRNVLTEESVVRESKSFTRSTVDTMAQKTQAV
notes: whole, on cells; also called CD88; U937/C5aR cells
B2: human formylated peptide receptor (FPR) (receptor)
chain: METNSSLPTNISGGTPAVSAGYLFLDIITYLVFAVTFVLGVLGNGLVIWVAGFRMTHTVTTISYLNLAVADFCFTSTLPFFMVRKAMGGHWPFGWFLCKFVFTIVDINLFGSVFLIALIALDRCVCVLHPVWTQNHRTVSLAKKVIIGPWVMALLLTLPVIIRVTTVPGKTGTVACTFNFSPWTNDPKERINVAVAMLTVRGIIRFIIGFSAPMSIVAVSYGLIATKIHKQGLIKSSRPLRVLSFVAAAFFLCWSPYQVVALIATVRIRELLQGMYKEIGIAVDVTSALAFFNSCLNPMLYVFMGQDFRERLIHALPASLERALTEDSTQTSDTATNSTLPSAEVELQAK
notes: whole, on cells; also called formyl-peptide-receptor

What was measured:
[1] = target: T1, Chemotaxis Inhibitory Protein of Staphylococcus aureus (CHIPS), wildtype, amino acids 1-121 (Staphylococcus aureus, UniProt A6QIG7 29-149); assay: competition: CHIPS given iv (0.1 mg/kg) against the binding of FITC labelled anti-CD88 mAb to C5aR on gated blood neutrophils, flow cytometry [B) (cont.]
[2] = target: T1, Chemotaxis Inhibitory Protein of …; assay: competition: CHIPS given iv (0.1 mg/kg) against the binding of FITC-fMLP to FPR on gated blood neutrophils, flow cytometry [A) (cont.]

Binder	binding result [1]	binding result [2]
B1	binds	
B2		binds

Reference: US20100298539A1 (ALLIGATOR BIOSCIENCE, published 2010)
